Experimental data: patent US20240190964A1 (KYMAB, published 2024)

Biological target: T1, human ICOS (inducible T-cell co-stimulator) (human, UniProt Q9Y6W8 21-199)
T1 construct: also called the ICOS receptor
T1 sequence: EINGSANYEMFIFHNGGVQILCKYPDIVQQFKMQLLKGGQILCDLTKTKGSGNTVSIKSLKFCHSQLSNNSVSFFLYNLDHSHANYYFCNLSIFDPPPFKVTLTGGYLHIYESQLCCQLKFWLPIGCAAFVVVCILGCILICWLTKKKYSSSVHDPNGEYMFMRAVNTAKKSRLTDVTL
Assay: ICOS receptor occupancy (free ICOS detection) on peripheral CD4 memory T cells in longitudinal PBMC samples, chipcytometry, patient dosed with KY1044 in vivo

- binding result: binds
B1: KY1044 (aka STIM003), fully human IgG1 anti-ICOS antibody (antibody, V domains shown)
VH: EVQLVESGGGVVRPGGSLRLSCVASGVTFDDYGMSWVRQAPGKGLEWVSGINWNGGDTDYSDSVKGRFTISRDNAKNSLYLQMNSLRAEDTALYYCARDFYGSGSYYHVPFDYWGQGILVTVSS
VL: EIVLTQSPGTLSLSPGERATLSCRASQSVSRSYLAWYQQKRGQAPRLLIYGASSRATGIPDRFSGDGSGTDFTLSISRLEPEDFAVYYCHQYDMSPFTFGPGTKVDIKR
